Results: patent US20260167699A1 (Chugai, published 2026)

How the values were obtained:
Experiment in all cases: SPR, relative to GpH7-A5/GpH7-B3/GpL16-k0 =100
[1] = molecular target: T1, FcγRIIa(H) (human, UniProt P12318 34-217)
T1 construct: extracellular domain; also called 2aH
T1 sequence: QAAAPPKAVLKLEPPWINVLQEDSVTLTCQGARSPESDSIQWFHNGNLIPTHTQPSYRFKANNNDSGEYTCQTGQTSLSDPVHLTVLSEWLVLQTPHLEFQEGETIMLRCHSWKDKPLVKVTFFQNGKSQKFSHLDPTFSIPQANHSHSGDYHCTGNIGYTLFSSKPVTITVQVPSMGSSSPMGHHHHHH

[2] = molecular target: T2, FcγRIa (human, UniProt P12314 16-292)
T2 construct: extracellular domain; also called 1a

[3] = molecular target: T3, FcγRIIa(R) (human, UniProt P12318 34-217)
T3 construct: extracellular domain; also called 2aR
T3 sequence: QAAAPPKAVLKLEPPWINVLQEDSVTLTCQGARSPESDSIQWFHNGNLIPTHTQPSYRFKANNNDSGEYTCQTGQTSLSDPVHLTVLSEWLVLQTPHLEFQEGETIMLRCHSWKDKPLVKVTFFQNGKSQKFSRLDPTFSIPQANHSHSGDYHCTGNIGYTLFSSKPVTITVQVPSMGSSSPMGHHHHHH

[4] = molecular target: T4, FcγRIIb (human, UniProt P31994 43-217)
T4 construct: extracellular domain; also called 2b
T4 sequence: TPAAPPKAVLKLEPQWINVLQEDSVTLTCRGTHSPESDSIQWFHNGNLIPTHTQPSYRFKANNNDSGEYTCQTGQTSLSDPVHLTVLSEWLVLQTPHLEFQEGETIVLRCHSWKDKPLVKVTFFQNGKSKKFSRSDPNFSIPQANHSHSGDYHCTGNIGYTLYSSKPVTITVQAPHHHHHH

T2 sequence (P12314 other isoform, or with tags, fused parts or gaps): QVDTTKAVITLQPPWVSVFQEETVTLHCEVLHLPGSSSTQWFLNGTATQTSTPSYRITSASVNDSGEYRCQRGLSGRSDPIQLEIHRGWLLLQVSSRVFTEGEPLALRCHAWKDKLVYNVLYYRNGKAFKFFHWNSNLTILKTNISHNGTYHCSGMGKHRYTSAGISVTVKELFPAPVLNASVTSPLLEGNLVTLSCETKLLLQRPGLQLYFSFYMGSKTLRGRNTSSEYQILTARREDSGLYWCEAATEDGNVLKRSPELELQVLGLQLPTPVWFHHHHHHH

B1: GpH7-A5/GpH7-B3 variant A327_20W/GpL16-k0 (antibody, human IgG1, kappa)
heavy 1: not shown
heavy 2: not shown
light: DIVMTQSPLSLPVTPGEPASISCQASESLVHSNRNTYLHWYLQKPGQSPQLLIYKVSNRFSGVPDRFSGSGSGTDFTLKISRVEAEDVGVYYCSQNTHVPPTFGQGTKVEIERTVAAPSVFIFPPSDEQLKSGTASVVCLLNNFYPREAKVQWKVDNALQSGNSQESVTEQDSKDSTYSLSSTLTLSKADYEKHKVYACEVTHQGLSSPVTKSFNRGEC
notes: He Ab: heterodimerized IgG1, one H chain mutated
He/Con 2aH [1]: 76.6% | He/Con 1a [2]: 100% | He/Con 2aR [3]: 95.9% | He/Con 2b [4]: 98.2%

B2: GpH7-A5/GpH7-B3 variant A330_14T/GpL16-k0 (antibody, human IgG1, kappa)
heavy 1: not shown
heavy 2: not shown
light: DIVMTQSPLSLPVTPGEPASISCQASESLVHSNRNTYLHWYLQKPGQSPQLLIYKVSNRFSGVPDRFSGSGSGTDFTLKISRVEAEDVGVYYCSQNTHVPPTFGQGTKVEIERTVAAPSVFIFPPSDEQLKSGTASVVCLLNNFYPREAKVQWKVDNALQSGNSQESVTEQDSKDSTYSLSSTLTLSKADYEKHKVYACEVTHQGLSSPVTKSFNRGEC
notes: as for B1
He/Con 2aH [1]: 102% | He/Con 1a [2]: 108% | He/Con 2aR [3]: 107% | He/Con 2b [4]: 87.9%

B3: GpH7-A5/GpH7-B3 variant A330_19Q/GpL16-k0 (antibody, human IgG1, kappa)
heavy 1: not shown
heavy 2: not shown
light: DIVMTQSPLSLPVTPGEPASISCQASESLVHSNRNTYLHWYLQKPGQSPQLLIYKVSNRFSGVPDRFSGSGSGTDFTLKISRVEAEDVGVYYCSQNTHVPPTFGQGTKVEIERTVAAPSVFIFPPSDEQLKSGTASVVCLLNNFYPREAKVQWKVDNALQSGNSQESVTEQDSKDSTYSLSSTLTLSKADYEKHKVYACEVTHQGLSSPVTKSFNRGEC
notes: as for B1
He/Con 2aH [1]: 110% | He/Con 1a [2]: 109% | He/Con 2aR [3]: 117% | He/Con 2b [4]: 103%

B4: GpH7-A5/GpH7-B3 variant K326_02A/GpL16-k0 (antibody, human IgG1, kappa)
heavy 1: not shown
heavy 2: not shown
light: DIVMTQSPLSLPVTPGEPASISCQASESLVHSNRNTYLHWYLQKPGQSPQLLIYKVSNRFSGVPDRFSGSGSGTDFTLKISRVEAEDVGVYYCSQNTHVPPTFGQGTKVEIERTVAAPSVFIFPPSDEQLKSGTASVVCLLNNFYPREAKVQWKVDNALQSGNSQESVTEQDSKDSTYSLSSTLTLSKADYEKHKVYACEVTHQGLSSPVTKSFNRGEC
notes: as for B1
He/Con 2aH [1]: 110% | He/Con 1a [2]: 107% | He/Con 2aR [3]: 125% | He/Con 2b [4]: 156%

B5: GpH7-A5/GpH7-B3 variant A330_09D/GpL16-k0 (antibody, human IgG1, kappa)
heavy 1: not shown
heavy 2: not shown
light: DIVMTQSPLSLPVTPGEPASISCQASESLVHSNRNTYLHWYLQKPGQSPQLLIYKVSNRFSGVPDRFSGSGSGTDFTLKISRVEAEDVGVYYCSQNTHVPPTFGQGTKVEIERTVAAPSVFIFPPSDEQLKSGTASVVCLLNNFYPREAKVQWKVDNALQSGNSQESVTEQDSKDSTYSLSSTLTLSKADYEKHKVYACEVTHQGLSSPVTKSFNRGEC
notes: as for B1
He/Con 2aH [1]: 67.8% | He/Con 1a [2]: 112% | He/Con 2aR [3]: 79.5% | He/Con 2b [4]: 62.8%

B6: GpH7-A5/GpH7-B3 variant A330_10E/GpL16-k0 (antibody, human IgG1, kappa)
heavy 1: not shown
heavy 2: not shown
light: DIVMTQSPLSLPVTPGEPASISCQASESLVHSNRNTYLHWYLQKPGQSPQLLIYKVSNRFSGVPDRFSGSGSGTDFTLKISRVEAEDVGVYYCSQNTHVPPTFGQGTKVEIERTVAAPSVFIFPPSDEQLKSGTASVVCLLNNFYPREAKVQWKVDNALQSGNSQESVTEQDSKDSTYSLSSTLTLSKADYEKHKVYACEVTHQGLSSPVTKSFNRGEC
notes: as for B1
He/Con 2aH [1]: 87.7% | He/Con 1a [2]: 111% | He/Con 2aR [3]: 97.2% | He/Con 2b [4]: 79.2%

B7: GpH7-A5/GpH7-B3 variant A330_16H/GpL16-k0 (antibody, human IgG1, kappa)
heavy 1: not shown
heavy 2: not shown
light: DIVMTQSPLSLPVTPGEPASISCQASESLVHSNRNTYLHWYLQKPGQSPQLLIYKVSNRFSGVPDRFSGSGSGTDFTLKISRVEAEDVGVYYCSQNTHVPPTFGQGTKVEIERTVAAPSVFIFPPSDEQLKSGTASVVCLLNNFYPREAKVQWKVDNALQSGNSQESVTEQDSKDSTYSLSSTLTLSKADYEKHKVYACEVTHQGLSSPVTKSFNRGEC
notes: as for B1
He/Con 2aH [1]: 110% | He/Con 1a [2]: 109% | He/Con 2aR [3]: 111% | He/Con 2b [4]: 99%

B8: GpH7-A5/GpH7-B3 variant A330_07I/GpL16-k0 (antibody, human IgG1, kappa)
heavy 1: not shown
heavy 2: not shown
light: DIVMTQSPLSLPVTPGEPASISCQASESLVHSNRNTYLHWYLQKPGQSPQLLIYKVSNRFSGVPDRFSGSGSGTDFTLKISRVEAEDVGVYYCSQNTHVPPTFGQGTKVEIERTVAAPSVFIFPPSDEQLKSGTASVVCLLNNFYPREAKVQWKVDNALQSGNSQESVTEQDSKDSTYSLSSTLTLSKADYEKHKVYACEVTHQGLSSPVTKSFNRGEC
notes: as for B1
He/Con 2aH [1]: 94.4% | He/Con 1a [2]: 109% | He/Con 2aR [3]: 96% | He/Con 2b [4]: 75.8%

B9: GpH7-A5/GpH7-B3 variant A330_03V/GpL16-k0 (antibody, human IgG1, kappa)
heavy 1: not shown
heavy 2: not shown
light: DIVMTQSPLSLPVTPGEPASISCQASESLVHSNRNTYLHWYLQKPGQSPQLLIYKVSNRFSGVPDRFSGSGSGTDFTLKISRVEAEDVGVYYCSQNTHVPPTFGQGTKVEIERTVAAPSVFIFPPSDEQLKSGTASVVCLLNNFYPREAKVQWKVDNALQSGNSQESVTEQDSKDSTYSLSSTLTLSKADYEKHKVYACEVTHQGLSSPVTKSFNRGEC
notes: as for B1
He/Con 2aH [1]: 86.1% | He/Con 1a [2]: 109% | He/Con 2aR [3]: 84% | He/Con 2b [4]: 59.2%

B10: GpH7-A5/GpH7-B3 variant A330_01G/GpL16-k0 (antibody, human IgG1, kappa)
heavy 1: not shown
heavy 2: not shown
light: DIVMTQSPLSLPVTPGEPASISCQASESLVHSNRNTYLHWYLQKPGQSPQLLIYKVSNRFSGVPDRFSGSGSGTDFTLKISRVEAEDVGVYYCSQNTHVPPTFGQGTKVEIERTVAAPSVFIFPPSDEQLKSGTASVVCLLNNFYPREAKVQWKVDNALQSGNSQESVTEQDSKDSTYSLSSTLTLSKADYEKHKVYACEVTHQGLSSPVTKSFNRGEC
notes: as for B1
He/Con 2aH [1]: 107% | He/Con 1a [2]: 109% | He/Con 2aR [3]: 122% | He/Con 2b [4]: 117%

B11: GpH7-A5/GpH7-B3 variant A330_08L/GpL16-k0 (antibody, human IgG1, kappa)
heavy 1: not shown
heavy 2: not shown
light: DIVMTQSPLSLPVTPGEPASISCQASESLVHSNRNTYLHWYLQKPGQSPQLLIYKVSNRFSGVPDRFSGSGSGTDFTLKISRVEAEDVGVYYCSQNTHVPPTFGQGTKVEIERTVAAPSVFIFPPSDEQLKSGTASVVCLLNNFYPREAKVQWKVDNALQSGNSQESVTEQDSKDSTYSLSSTLTLSKADYEKHKVYACEVTHQGLSSPVTKSFNRGEC
notes: as for B1
He/Con 2aH [1]: 94.7% | He/Con 1a [2]: 110% | He/Con 2aR [3]: 99.7% | He/Con 2b [4]: 79.6%

B12: GpH7-A5/GpH7-B3 variant K326_01G/GpL16-k0 (antibody, human IgG1, kappa)
heavy 1: not shown
heavy 2: not shown
light: DIVMTQSPLSLPVTPGEPASISCQASESLVHSNRNTYLHWYLQKPGQSPQLLIYKVSNRFSGVPDRFSGSGSGTDFTLKISRVEAEDVGVYYCSQNTHVPPTFGQGTKVEIERTVAAPSVFIFPPSDEQLKSGTASVVCLLNNFYPREAKVQWKVDNALQSGNSQESVTEQDSKDSTYSLSSTLTLSKADYEKHKVYACEVTHQGLSSPVTKSFNRGEC
notes: as for B1
He/Con 2aH [1]: 105% | He/Con 1a [2]: 106% | He/Con 2aR [3]: 108% | He/Con 2b [4]: 119%

B13: GpH7-A5/GpH7-B3 variant A330_18N/GpL16-k0 (antibody, human IgG1, kappa)
heavy 1: not shown
heavy 2: not shown
light: DIVMTQSPLSLPVTPGEPASISCQASESLVHSNRNTYLHWYLQKPGQSPQLLIYKVSNRFSGVPDRFSGSGSGTDFTLKISRVEAEDVGVYYCSQNTHVPPTFGQGTKVEIERTVAAPSVFIFPPSDEQLKSGTASVVCLLNNFYPREAKVQWKVDNALQSGNSQESVTEQDSKDSTYSLSSTLTLSKADYEKHKVYACEVTHQGLSSPVTKSFNRGEC
notes: as for B1
He/Con 2aH [1]: 88.3% | He/Con 1a [2]: 110% | He/Con 2aR [3]: 91% | He/Con 2b [4]: 71.9%

B14: GpH7-A5/GpH7-B3 variant A330_04F/GpL16-k0 (antibody, human IgG1, kappa)
heavy 1: not shown
heavy 2: not shown
light: DIVMTQSPLSLPVTPGEPASISCQASESLVHSNRNTYLHWYLQKPGQSPQLLIYKVSNRFSGVPDRFSGSGSGTDFTLKISRVEAEDVGVYYCSQNTHVPPTFGQGTKVEIERTVAAPSVFIFPPSDEQLKSGTASVVCLLNNFYPREAKVQWKVDNALQSGNSQESVTEQDSKDSTYSLSSTLTLSKADYEKHKVYACEVTHQGLSSPVTKSFNRGEC
notes: as for B1
He/Con 2aH [1]: 104% | He/Con 1a [2]: 110% | He/Con 2aR [3]: 112% | He/Con 2b [4]: 105%

B15: GpH7-A5/GpH7-B3 variant A330_20W/GpL16-k0 (antibody, human IgG1, kappa)
heavy 1: not shown
heavy 2: not shown
light: DIVMTQSPLSLPVTPGEPASISCQASESLVHSNRNTYLHWYLQKPGQSPQLLIYKVSNRFSGVPDRFSGSGSGTDFTLKISRVEAEDVGVYYCSQNTHVPPTFGQGTKVEIERTVAAPSVFIFPPSDEQLKSGTASVVCLLNNFYPREAKVQWKVDNALQSGNSQESVTEQDSKDSTYSLSSTLTLSKADYEKHKVYACEVTHQGLSSPVTKSFNRGEC
notes: as for B1
He/Con 2aH [1]: 93.8% | He/Con 1a [2]: 111% | He/Con 2aR [3]: 97.6% | He/Con 2b [4]: 86%
